From the supplement of paper PMC11865577

Tests used:
Assay in all cases: pull-down binding Z-score (relative to library population); higher = stronger binding
[1] = tested on: G-clamp-N3 (biotin conjugate); details: RNA library: Library-1 (pre-miRNA loops + repeats)
Method in brief: (§1)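 An RNA library (1 μg) carrying a Cy5 or Cy3 end label was heat-folded in phosphate/NaCl/KCl buffer, then incubated for 60 min at 25 °C with streptavidin beads loaded with 100 pmol of biotin-conjugated small molecule. The beads were washed three times, and bound RNA was released in hot SDS and hybridised to a DNA barcode microarray for 20 h at 55.5 °C. Each binding score was derived by subtracting the signal from beads without compound, averaging the barcoded replicate probes after removing the highest and lowest, and expressing the result as a Z-score relative to the library mean and standard deviation.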

[2] = tested on: TO-3-N3 (biotin conjugate); details: RNA library: Library-2
Method in brief: as §1

[3] = tested on: TO-3-N3-2 (biotin conjugate); details: RNA library: Library-2
Method in brief: as §1

TO-N3 (biotin conjugate) = details: RNA library: Library-2
Method in brief: as §1

[4] = tested on: TO-N3-2 (biotin conjugate); details: RNA library: Library-2
Method in brief: as §1

| Sequence | pull-down binding Z-score [1] | pull-down binding Z-score [2] | pull-down binding Z-score [3] | pull-down binding Z-score (TO-N3 (biotin conjugate)) | pull-down binding Z-score [4] |
| --- | --- | --- | --- | --- | --- |
| CUGAAAAUACAAAAUGGAAAAUUCCAG [hsa-mir-4494] | -1.38 | -0.0909 | 0.256 | -0.0822 | -0.365 |
| CUGAACCCGUGGGUGAGGAGUGCAG [hsa-mir-4690] | 0.824 | 0.367 | 0.0142 | 0.515 | 0.925 |
| CUGAACUGGGCUGGGUUGAGCUGGGCUGGGCUGAGUUGAG [hsa-mir-4538] | 1.51 | 4.18 | 5.75 | 3.25 | 2.71 |
| CUGACCCGUUGUCAGACCUGGAAAAAGGGCCGGCUGUGGGCAGGGAGG [hsa-mir-4761] | 1.11 | 4.77 | 5.16 | 4.2 | 3.86 |
| CUGAGAGGUUUACAUUUCUC [hsa-mir-128-1] | -1.07 | -0.664 | -0.672 | -0.648 | -0.0343 |
| CUGAGAGUGUCAUGGUGGAGCCUCCG [hsa-mir-4784] | 0.795 | 0.121 | -0.0723 | 0.735 | 1.55 |
| CUGAGCGGCUCCAUCCCCCGGCCUGCUCAU [hsa-mir-6729] | -1.11 | 0.85 | 0.224 | 1.14 | 1.81 |
| CUGAGCUGGGUACUGCCUGUUCAG [hsa-mir-589] | 0.263 | 0.697 | 0.311 | 0.518 | 0.0632 |
| CUGAGGAAUUUGCUGGGAUAUGUCAG [hsa-mir-584] | 0.609 | 0.181 | 0.168 | 0.66 | 0.799 |
| CUGAGGACAUGCAGUUUCAG [hsa-mir-7702] | 0.946 | -0.471 | -0.579 | -0.651 | -0.304 |
| CUGAGGACUGAGGCUCACCUUG [hsa-mir-6772] | 0.0792 | -0.057 | 0.0747 | 0.412 | 0.813 |
| CUGAGUAACUUGUGCUUAUAACUCAG [hsa-mir-5000] | 0.251 | 0.396 | 0.379 | 0.194 | -0.396 |
| CUGAUUCAGAAAGAUCAUCGG [hsa-mir-127] | -0.634 | -0.444 | 0.0704 | -0.346 | 0.226 |
| CUGAUUGUCAUAUGUCGUUUGUGGGAUCCG [hsa-mir-340] | -0.698 | -0.605 | -0.336 | -0.333 | 0.334 |
| CUGCAGAACAUUGCAG [hsa-mir-4310] | 0.0291 | -0.487 | -0.408 | -0.727 | -1.08 |
| CUGCAGAGACGAGGCCUGUAG [hsa-mir-5682] | 0.122 | 0.688 | 0.149 | 0.828 | 0.886 |
| CUGCAGGAAAGGGAAGACCAAGGCUUGCUGUCUGUCCAGUCUGCCACCCUACCCUGU [hsa-mir-1231] | -0.156 | -0.0839 | 0.108 | 0.788 | 1.54 |
| CUGCAGGGACUGUGACACUGAA [hsa-mir-6816] | 1.64 | -0.0339 | 0.24 | 0.85 | 1.22 |
| CUGCAGUGAGCGAUCGGUGCUCUGGGG [hsa-mir-503] | 1.34 | 0.176 | 0.308 | 0.798 | 1.07 |

| Sequence | pull-down binding Z-score [1] | pull-down binding Z-score [2] | pull-down binding Z-score [3] | pull-down binding Z-score (TO-N3 (biotin conjugate)) | pull-down binding Z-score [4] |
| --- | --- | --- | --- | --- | --- |
| CUGCAGUGAGUAGGUCUGCCU [hsa-mir-4254] | -0.362 | 0.19 | 0.253 | 0.705 | 1.17 |
| CUGCCAUUGAAAGUAAAGGCAA [hsa-mir-548ag-2] | 0.525 | 0.656 | 0.239 | 0.608 | 0.104 |
| CUGCCCCUCGAAUCUGCUCCACGAUUUGGGCAG [hsa-mir-4436a] | 0.401 | 0.0656 | -0.181 | -0.337 | -0.521 |
| CUGCGGCCCUGAUGUCUCUACUCCAG [hsa-mir-4691] | -0.134 | 0.388 | 0.103 | 0.703 | 0.919 |
| CUGCUCUCCCUGGCAGCAAG [hsa-mir-7109] | 1.5 | -0.207 | -0.0188 | 0.283 | 0.6 |
| CUGCUGAAUCUUCAGAAAGG [hsa-mir-3142] | -0.0627 | -0.432 | -0.178 | -0.164 | 0.135 |
| CUGCUGCCGAUUCUGCACCAG [hsa-mir-4756] | -1.02 | -0.432 | -0.46 | -0.301 | 0.461 |
| CUGCUGCUGCUGCUGCUGCUGCUGCUGCUGCUGCUGCUGCUGCUGCUG [r(CUG)16] | 2.5 | -0.0148 | -0.215 | 0.778 | 1.37 |
| CUGCUUUUAAAGGUAAUGGCAA [hsa-mir-548ag-1] | -0.0258 | 0.107 | -0.0835 | 0.193 | -0.0105 |
| CUGGAGUCGCCUGAGUCAUCACUCAG [hsa-mir-3065] | -0.66 | -0.142 | -0.276 | 0.0597 | 0.525 |
| CUGGCAUUUACGAGUCAGAGUUCUUACAGAGCUGC [hsa-mir-6514] | -1.37 | 0.163 | 0.16 | 0.639 | 1.48 |
| CUGGCCAUCAGUGUGGGCUAAC [hsa-mir-6732] | -0.237 | -0.0637 | -0.117 | 0.33 | 0.569 |
| CUGGCUGGUCCAGCCCCUCAGAAG [hsa-mir-6796] | -0.944 | 1.16 | 0.4 | 1.39 | 1.47 |
| CUGGCUUCUCUGGUUCUCCAGCUUACAG [hsa-mir-1269b] | -1.06 | -0.401 | -0.356 | -0.0501 | 0.333 |
| CUGGGAAGAGACCAUGAACAGGUUAGUCCAG [hsa-mir-4327] | -0.176 | 0.385 | -0.286 | 0.536 | -0.495 |
| CUGGGAAGGGAGCUGUCCGGCUCCCCAG [hsa-mir-3155b] | 2.41 | -0.412 | -0.263 | -0.53 | -0.136 |
| CUGGGAGGUGUGAUAUCGUGGUUCCUGG [hsa-mir-3689c] | 0.718 | 1.02 | 0.136 | 1.13 | 0.744 |
| CUGGGAGGUGUGAUCCCGUGCUUCCUGG [hsa-mir-3689b] | -0.593 | -0.788 | -0.408 | -0.713 | 0.409 |
